Experimental data as given in patent US20230227572A1 (HEFEI TG IMMUNOPHARMA, published 2023).

Columns and labels:
[1] = molecular target: T1, recombinant human PVRIG-human IgG1 Fc fusion protein (human); experiment: SPR (Biacore), human PVRIG-human IgG1 Fc on chip, antibody in flow, 1:1 model
T1 construct: no linker is told; also called human PVRIG-Fc fusion protein
Method: The binding kinetics and dissociation equilibrium constant (KD) of the antibodies of the present disclosure to human PVRIG were determined using the surface plasmon resonance (Biacore) assay. Briefly, a CMS chip was coated with human PVRIG-human IgG1 Fc fusion protein, and after being blocked, antibody solutions of different concentrations passed through the CMS chip at a fixed flow rate and bound to antigen for 2 min, followed by transfer to dissociation buffer for 6 min for determination of the dissociation rate. The kinetics were analyzed using a 1:1 binding model.
Target sequence in this assay (chain, as listed by the source limits assumed): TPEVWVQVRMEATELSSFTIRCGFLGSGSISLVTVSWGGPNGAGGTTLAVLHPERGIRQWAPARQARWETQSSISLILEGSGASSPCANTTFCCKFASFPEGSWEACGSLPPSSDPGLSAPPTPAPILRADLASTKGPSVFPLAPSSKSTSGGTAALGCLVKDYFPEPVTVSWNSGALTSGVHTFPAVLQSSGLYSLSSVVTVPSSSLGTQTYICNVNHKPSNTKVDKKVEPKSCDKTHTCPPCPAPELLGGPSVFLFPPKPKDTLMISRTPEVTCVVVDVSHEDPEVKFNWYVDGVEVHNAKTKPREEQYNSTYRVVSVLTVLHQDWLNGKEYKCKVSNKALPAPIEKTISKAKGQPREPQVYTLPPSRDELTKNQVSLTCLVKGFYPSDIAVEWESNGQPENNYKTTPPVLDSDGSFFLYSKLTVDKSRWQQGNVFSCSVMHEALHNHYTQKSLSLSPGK

[2] = molecular target: T2, human PVRIG protein on the cell membrane surface (human, UniProt Q6DKI7 41-326); experiment: flow cytometry on 293T-human PVRIG cells, AF647 goat anti-mouse IgG, percent positive cells
T2 construct: Also used here for the natural PVRIG on NKG cells and human lymphocytes; also called 293T-human PVRIG cell line; PVRIG on NKG cell line
T2 sequence: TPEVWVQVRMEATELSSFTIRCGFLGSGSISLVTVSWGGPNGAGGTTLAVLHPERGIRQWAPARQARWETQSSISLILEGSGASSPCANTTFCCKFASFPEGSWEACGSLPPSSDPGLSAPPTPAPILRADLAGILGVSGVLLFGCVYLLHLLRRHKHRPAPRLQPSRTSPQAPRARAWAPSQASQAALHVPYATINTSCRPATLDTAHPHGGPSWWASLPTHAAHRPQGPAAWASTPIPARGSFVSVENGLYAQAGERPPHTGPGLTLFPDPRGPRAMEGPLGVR
Method: The activity of murine antibodies from different clones in binding to human PVRIG protein on the cell membrane surface was evaluated by flow cytometry. The experimental procedure was as follows:
The 293T-human PVRIG cell line was harvested, washed with 1×PBS and resuspended, the cells were counted. Then […] were placed into each 1.5 ml Ep tube, the respective murine antibody (Antibody 1, Antibody 2, Antibody 3, or Antibody 4) was added at different concentrations, the mixture was incubated at 4° C. for 30 min, then washed with 1×PBS, and centrifuged at 3,500 rpm for 5 min to harvest the cells. The cell pellet was resuspended in 100 μl of 1×PBS, a AF647-labeled goat anti-mouse IgG antibody (available from Biolegend) was added, the mixture was incubated at 4° C. for 30 min in the dark, followed by washing twice with 1×PBS and harvesting the cells by centrifugation at 3,500 rpm for 5 min. The cell pellet was resuspended with 200 μl of 1×PBS and measured using a flow cytometer (BD LSR II).

[3] = molecular target: T1, recombinant human PVRIG-human IgG1 Fc …; experiment: ELISA, plate coated with human PVRIG-human IgG1 Fc at 1.0 µg/ml, HRP goat anti-mouse IgG, OD450
Method: The activity of the murine antibodies from different clones in binding to the human PVRIG-Fc fusion protein was evaluated by ELISA. The experimental procedure was as follows:
The recombinant human PVRIG-human IgG1 Fc fusion protein was diluted to 1.0 μg/ml in 1×PBS (phosphate buffer), the dilution was plated onto a 96-well ELISA plate overnight at 4° C. by 100 μl/well, the plate was washed 3 times with PBST (0.05% Tween20-PBS) and blocked with 1% BSA, followed by incubation at 37° C. for 2 h. The plate was washed 3 times with PBST, and murine antibodies (Antibody 1, Antibody 2, Antibody 3, or Antibody 4) diluted in multiple ratios were respectively added to set 8 concentrations, and the mixture was incubated at 37° C. for 1 h using mouse IgG1 (available from Biolegend) as a negative control at 100 μl/well. The plate was washed 3 times with PBST, and 100 μl of horseradish peroxidase (HRP)-labeled goat anti-mouse IgG antibody (available from BOSTER, 1:10,000 dilution) was added to each well, and the mixture was incubated at 37° C. for 1 h. After washing, 100 μl of TMB substrate solution was added to each well for developing for 10 to 15 min in the dark, 100 μl of stop solution (2M H2SO4) was added to each well, the solution was measured with a microplate reader immediately after the reaction stopped, and the absorbance at 450 nm (OD450) was read.

[4] = molecular target: T3, recombinant Macaca fascicularis PVRIG-human IgG1 Fc fusion protein (Macaca fascicularis; human); experiment: ELISA, plate coated with Macaca fascicularis PVRIG-human IgG1 Fc at 1.0 µg/ml, HRP goat anti-mouse IgG, OD450
T3 construct: Prepared 'in a similar manner' to the human PVRIG fusion
Method: The activity of the murine antibody in binding to the Macaca fascicularis PVRIG was evaluated by an ELISA method. The experimental procedure was as follows:
The recombinant Macaca fascicularis PVRIG-human IgG1 Fc fusion protein was diluted to 1.0 μg/ml in 1×PBS (phosphate buffer), the dilution was placed in a 96-well ELISA plate overnight at 4° C. by 100 μl/well, the plate was washed 3 times with PBST (0.05% Tween20-PBS) and blocked with 1% BSA, and the mixture was incubated for 2 h at 37° C. The plate was washed 3 times with PBST, and the murine antibody (Antibody 4) diluted in multiple ratios were respectively added to set 11 concentrations, and the mixture was incubated at 37° C. for 1 h using mouse IgG1 as a negative control at 100 μl/well. The plate was washed 3 times with PBST, 100 μl of horseradish peroxidase (HRP)-labeled goat anti-mouse IgG antibody (available from BOSTER, 1:10,000 dilution) was added to each well, and the mixture was incubated at 37° C. for 1 h. After washing, 100 μl of TMB substrate solution was added to each well for developing for 10 to 15 min in the dark, 100 μl of stop solution (2M H2SO4) was added to each well, the solution was measured with a microplate reader immediately after the reaction stopped, and the absorbance at 450 nm (OD450) was read. […]

[5] = molecular target: T1, recombinant human PVRIG-human IgG1 Fc …; experiment: flow cytometry blocking assay: antibody plus 10 µg/ml Fc fusion protein on 293T-human CD112 cells, AF647 anti-human IgG-Fc; y axis Human PVRIG-Fc fusion protein binding (%); blocked ligand: human CD112 on the cells
Method: The activity of murine antibodies from different clones in blocking the binding of the human PVRIG to its ligand CD112 was evaluated by flow cytometry. The experimental procedure was as follows:
The 293T-human CD112 cell line was harvested, and washed resuspended with 1×PBS to count the cells. […] The cell pellet was resuspended in 100 μl of 1×PBS, a AF647-labeled mouse anti-human IgG-Fc antibody (available from Biolegend) was added, the mixture was incubated at 4° C. for 30 min in the dark, followed by washing twice with 1×PBS and harvesting the cells by centrifugation at 3,500 rpm for 5 min. The cell pellet was resuspended with 200 ul of 1×PBS and measured using a flow cytometer (BD LSR II).

T3 sequence (chain, as listed by the source limits assumed): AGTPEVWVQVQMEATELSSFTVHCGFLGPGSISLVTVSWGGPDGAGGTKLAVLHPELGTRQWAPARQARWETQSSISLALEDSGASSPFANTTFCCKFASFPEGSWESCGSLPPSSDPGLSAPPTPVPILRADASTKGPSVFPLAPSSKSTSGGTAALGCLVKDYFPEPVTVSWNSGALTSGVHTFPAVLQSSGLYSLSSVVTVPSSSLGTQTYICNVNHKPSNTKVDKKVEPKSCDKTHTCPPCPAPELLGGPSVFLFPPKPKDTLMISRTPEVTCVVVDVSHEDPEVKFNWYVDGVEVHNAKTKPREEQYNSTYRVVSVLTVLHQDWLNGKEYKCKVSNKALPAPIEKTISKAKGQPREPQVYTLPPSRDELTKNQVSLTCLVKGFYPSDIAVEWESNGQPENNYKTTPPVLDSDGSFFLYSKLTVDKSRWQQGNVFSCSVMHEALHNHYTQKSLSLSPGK

B1: Antibody 4 (antibody, V domains shown)
VH: QVQLQQSGAELVKPGASVKISCKATGYTFSSFSIEWVKQRPGHGLAWIGEILPGSNSTNYNEKFKGKATFTADTSSNTAYMQLSSLTSEDSAVYYCSSYWFAYWGQGTLVTVSA
VL: DIVMTQSPSSLSVSAGEKVTMSCKSSQSLLNSGNQKNYLAWYQQKPGQPPKLLIYGASTRESGVPDRFTGSGSGTDFTLTISSVQAEDLAVYYCQNAHSYPPTFAAGTKLELK
notes: Murine monoclonal antibody from hybridoma ascites; Used AF647-labelled in several flow cytometry assays; also called murine antibody (Antibody 4); murine Antibody 4
Kd [1]: ≤ 4.1 pM
koff [1]: ≤ 1e-06 s⁻¹
kon [1]: 244000 M⁻¹ s⁻¹
EC50 (read off the curve) [2]: ~0.01 µg/mL
EC50 (read off the curve) [3]: ~0.02 µg/mL
EC50 (read off the curve) [4]: ~0.04 µg/mL
IC50 (read off the curve) [5]: ~3 µg/mL
